Assay results published in article PMC10288270, “Study on the Role of an Erythrocyte Membrane‐Coated Nanotheranostic System in Targeted Immune Regulation of Alzheimer's Disease”.

Molecular target: Amyloid beta 1-42 (UniProt P05067 672-713)
Assay: fluorescence recovery (FAM/BHQ1 dequenching); Abeta 0-160 ug/mL, 2 h; TBS: 1 mM Tris-HCl, 100 mM NaCl, 4 mM MgCl2, 5 mM KCl, pH 7.4; 37 C, 2 h; aptamer refolded from 95 C; 2 uL of 10 uM aptamer
Settings: protein: commercial; label: 5' 6-FAM, 3' BHQ1 as printed in Methods (Results text states FAM 3', BHQ 5'); hairpin (stated design)

Chain of Amyloid beta 1-42 (P05067 672-713): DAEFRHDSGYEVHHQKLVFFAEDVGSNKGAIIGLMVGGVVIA

TGGGGGGCGGACGATAGGGGCCCCCCGGTAGGATGGACG (structured_DNA) [Abeta aptamer (AAP)]
binding result: binds
